Values joined by “and” are separate entries in the source; they are usually repeats but may differ in a detail not shown here. Equal entries are not always repeated.
biological target: PD-1/PD-L1 (Mus musculus, UniProt Q9EP73); experiment: In vitro activity of candidate nanobodies NB9, NB10, NB11, NB17 (blocking or non-blocking type); assay type: binding; conditions: not given
Sequence (Q9EP73 19-239): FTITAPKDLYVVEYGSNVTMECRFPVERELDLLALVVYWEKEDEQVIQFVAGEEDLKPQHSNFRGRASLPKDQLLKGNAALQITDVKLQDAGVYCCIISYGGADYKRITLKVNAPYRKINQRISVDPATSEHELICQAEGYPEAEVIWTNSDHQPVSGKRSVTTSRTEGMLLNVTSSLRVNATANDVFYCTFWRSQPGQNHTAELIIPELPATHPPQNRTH

Molecule	Blocking type or non-blocking type nanobody
Nb9: anti-PD-L1 nanobody, VHH SEQ ID NO: 5 (protein, Nb9 Amino acid sequence of VHH) VHH: QVQLQESGGGLVHPGGSLRLSCAASGFTFSSYTMRWVRQAPGKGLEWVSGINNVGGSTLYADSVKGRFTISRDNAKNTLYLQMNSLQPDDTAMYYCATGIIGSGLETATYRGQGTQVTVSS	blocking type
Nb10: anti-PD-L1 nanobody, VHH SEQ ID NO: 9 (protein, Nb10 Amino acid sequence of VHH) VHH: QVQLQESGGGSVQAGGSLRLSCAASGYRFCRLAMRWYRQAPGKEREFVSFIDSGGTTSYADSVKGRFTISRDSAKNTVYLQMNSLKPEDTGMYYCNSDILGGGGGCPVSSYWGQGTQVTVSS	blocking type
Nb11: anti-PD-L1 nanobody, VHH SEQ ID NO: 13 (protein, Nb11 Amino acid sequence of VHH) VHH: QVQLQESGGGSVQAEGSLRLSCSAPIYVTYYGTYCMGWFRQAPGKEREGVAGISGDGRTSYADSVKGRFTVSKDNAKNTLYLEMNSLKPEDTAMYYCALRIGGYCDTLNGADFRYWGQGTQVTVSS	non-blocking
Nb17: anti-PD-L1 nanobody, VHH SEQ ID NO: 17 (protein, Nb17 Amino acid sequence of VHH) VHH: QVQLQESGGGSVQAGGSLRLSCAASGYSARRRMGWFRQAPGKEREGVASIYTAGGRTWYADSVKGRFTISQDNAKNTVYLQMNSLKPDDTAMYYCAASPAPYGAESLSEADFAYWGQGTQVTVSS	non-blocking

biological target: T1, human PD-L1 on cell strain HEK293T/hPD-L1 (human, UniProt Q9NZQ7 19-290); experiment: flow cytometry on HEK293T/hPD-L1, 10 µg/mL, anti-human IgG Fc (FITC); conditions: not given
T1 construct: whole, on cells
T1 sequence (Q9NZQ7 19-290): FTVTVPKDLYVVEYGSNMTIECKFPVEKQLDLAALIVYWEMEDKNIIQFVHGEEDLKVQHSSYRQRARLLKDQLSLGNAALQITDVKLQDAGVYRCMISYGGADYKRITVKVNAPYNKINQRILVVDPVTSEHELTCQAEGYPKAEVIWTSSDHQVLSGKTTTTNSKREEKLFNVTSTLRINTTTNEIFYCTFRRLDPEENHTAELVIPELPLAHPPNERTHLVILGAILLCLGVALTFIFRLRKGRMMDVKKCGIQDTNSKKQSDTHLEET
Procedure: (§1) The cell strain HEK293T/hPD-L1 was digested, and centrifugationwas performed to remove the supernatant; the cells were washed one time with PBS and the cell density was adjusted to 2.5×10⁶ cells/mL; each cell sample was added to a 100 μL cell suspension, that is, a 2.5×10⁵ cell/sample was comprised; different anti-human PD-L1 candidate nanobodies (the concentration is 10 μg/mL) were respectively added to the samples; incubating for 20 min at 4° C.; centrifuging, removing supernatant, and the cells were washing once with PBS; using diluted antibody anti-human IgG Fc (FITC) as secondary antibody, and the cells were re-suspended; incubating at 4° C. for 20 min; centrifuging, removing supernatant, the cells were washing twice with PBS, and transferred to a flow tube; and was performed on-machine detection by using a flow cytometer to obtain the binding activity of the candidate nanobody and human PD-L1, as shown in FIG. 13.

binding result	Molecule
binds	anti-human PD-L1 nanobody h_Nb26 (Fc fusion, not shown: Fc of human IgG1 from vector pFUSE-hIgG1-Fc) DVQLQESGGGLVQPGGSLRLSCAAPGSIFRINAMGWYRQAPGKQRELVAAITSGGSTNYADSVQGRFTISRDNAKNTVYLQMNSLKPEDTAVYYCNVERRRPPHYYSDYDFDWGQGTQVTVSS
binds	anti-human PD-L1 nanobody h_Nb1 (Fc fusion, Cloned into pFUSE-mIgG2b-Fc and pFUSE-hIgG1-Fc; not shown: Fc of human IgG1 from vector pFUSE-hIgG1-Fc) DVQLQESGGGLVQPGGSLRLSCAASGFTFSSYAMSWVRQAPGKGLEWVSDINSGGDNTDYADSVKGRFTISRDNAKNTLYLQMNSLKPEDTAVYYCARGPKLCFSSWGQGTQVTVSS

Further lines, the molecule ahead of its results:

Molecule	binding result
anti-human PD-L1 nanobody h_Nb2 (Fc fusion, not shown: Fc of human IgG1 from vector pFUSE-hIgG1-Fc) DVQLQESGGGLVQPGGSLRLSCAASGFTFGDRWMYWLRQAPGKGLEWVSSINPAGRSTYYADSVKGRFTISRDNAKNTLYLQMNSLKSEDTAVYYCTKDPGGYQKGQGTQVTVSS	binds
anti-human PD-L1 nanobody h_Nb4 (Fc fusion, not shown: Fc of human IgG1 from vector pFUSE-hIgG1-Fc) DVQLQESGGGLVQAGGSLRLSCAAPSRMFSGYTMGWYRQAPGKQRELVAQIANGGFTDYIDSVKGRFSISRDTVLNMMYLQMNSLKPEDTAVYYCNLVLVNGIPTRNWGQGTQVTVSS	binds

biological target: T2, HEK293T/hPD-L1 (Homo sapiens, UniProt Q9NZQ7); experiment: Human PD-L1 binding activity assay of candidate anti-human PD-L1 nanobodies (flow cytometry); conditions: nanobody 10 μg/mL
T2 construct: expressed in transfected cells; host or cells: HEK293T
T2 sequence (Q9NZQ7 19-290): as the sequence (Q9NZQ7 19-290) above
Procedure: as §1, with “2.5×10^6” for “2.5×10⁶”, “2.5×10^5” for “2.5×10⁵”

Binding activity with human PD-L1	Molecule
good binding activity	h_Nb6: anti-human PD-L1 nanobody, VHH SEQ ID NO: 37 (protein, h_Nb6 Amino acid sequence of VHH) VHH: DVQLQESGGGLAQPGGSLRLSCAASGFTFSSYAMSWARQAPGKGLEWVAGIYRGGSDTYYADSVKGRFTISRDNTKNTLYLQMNSLKPEDTALYYCIQGWGLGYANYDYWGQGTQVTVSS
good binding activity	h_Nb9: anti-human PD-L1 nanobody, VHH SEQ ID NO: 40 (protein, h_Nb9 Amino acid sequence of VHH) VHH: DVQLQESGGGLVQPGGSLRLSCASSGSIFGLGVKGWYRQPPGNQREMVAQIISGGRISYADSVKGRFTISRDNAKNTVYLQMNSLKPEDTAVYYCNAWGPGQRNYWGRGTQVTVSS
good binding activity	h_Nb13: anti-human PD-L1 nanobody, VHH SEQ ID NO: 48 (protein, h_Nb13 Amino acid sequence of VHH) VHH: DVQLQESGGGLVQPGGSLRLSCAASGSIFSINAMGWYRQAPGKSRELVAAITSGGSTNYADSVKGRFTISRDTAKNTVYLLMNSLEPEDTAVYYCNVERRRPPHYLSEYDFDWGQGTQVTVSS

The remaining lines, values behind:

Molecule	Binding activity with human PD-L1
h_Nb4: anti-human PD-L1 nanobody, VHH SEQ ID NO: 29 (protein, h_Nb4 Amino acid sequence of VHH) VHH: DVQLQESGGGLVQAGGSLRLSCAAPSRMFSGYTMGWYRQAPGKQRELVAQIANGGFTDYIDSVKGRFSISRDTVLNMMYLQMNSLKPEDTAVYYCNLVLVNGIPTRNWGQGTQVTVSS	good binding activity
h_Nb5: anti-human PD-L1 nanobody, VHH SEQ ID NO: 33 (protein, h_Nb5 Amino acid sequence of VHH) VHH: DVQLQESGGGAVQSGESLRLSCAASGRDLMFYDVAWFRQAPGKEREGVSYIRSSGTLTKYADSVKGRFTISRDNDKNTVSLQMNSLNPEDTAKYYCAARLQSATSHSDLREDEFNSWGQGTQVTVSS	good binding activity
h_Nb12: anti-human PD-L1 nanobody, VHH SEQ ID NO: 44 (protein, h_Nb12 Amino acid sequence of VHH) VHH: DVQLQESGGGLVQAGGSLRLSCAASGRTFSSRAMGWFRQAPGKEREFVAAISGSGRNTYYADSVKGRFTISRDNAKNSVNLQMNSLKPEDTAVYYCNAAGGGITIATMTQRTQYDYWGQGTQVTVSS	good binding activity
h_Nb26: anti-human PD-L1 nanobody, VHH SEQ ID NO: 56 (protein, h_Nb26 Amino acid sequence of VHH) VHH: DVQLQESGGGLVQPGGSLRLSCAAPGSIFRINAMGWYRQAPGKQRELVAAITSGGSTNYADSVQGRFTISRDNAKNTVYLQMNSLKPEDTAVYYCNVERRRPPHYYSDYDFDWGQGTQVTVSS	good binding activity

test system: induced high-expression PD-L1 CT26 tumor cell; experiment: Combined anti-tumor effect of Nb16 and SZU-101, IFN-γ-induced CT26 subcutaneous tumor model; assay type: in vivo, BALB/c mouse; conditions: Nb16 10 mg/kg intraperitoneal, SZU-101 3 mg/kg peritumoral
Procedure: The mouse CT26 tumor cells were recovered and passaged, it was ensured that tumor cells at least have been subjected to 3 generations during tumor-bearing, and mouse IFN-γ with a final concentration of 100 ng/mL was used to induce tumor cells for 24 h before tumor-bearing, so that the cell surface thereof highly expresses PD-L1; the induced high-expression PD-L1 CT26 tumor cell was inoculated subcutaneously into a female BALB/c mouse, wherein the inoculation amount was 1×10^6 cells/one; and randomly grouping mice into four groups (9 per group), i.e., a same-type control group (mFc), a nano-antibody Nb16 group (Nb16), a TLR7 agonist SZU-101 group (SZU-101) and a combined treatment group (NB16/SZU-101), wherein the administration amount of the mFc and the Nb16 was 10 mg/kg, and intraperitoneal administration was performed; and the administration amount of the SZU-101 was 3 mg/kg, and the tumor was administered circumferentially. The administration cycle were Nb16 administered on D1, D5, D9, D12, and D14 and SZU-101 administered on D9-D14 (3A). The body weight of the mouse and the tumor major diameter (L) and the short diameter (W) in the administration cycle were observed and recorded until the anatomical endpoint, and the tumor volume V=(L×W×W)/2 was calculated, a tumor growth curve was drawed, and the tumor inhibition rate was calculated; and the experiment was terminated on the fifteenth day. After performing euthanasia, the animal was dissected, and the subcutaneous tumor was taken out.

Molecule	Anti-tumor effect
COCCOc1nc(N)c2nc(O)n(Cc3ccc(CNC(=O)CCC(=O)O)cc3)c2n1 [SZU-101]	significantly inhibit tumor growth

same assay, conditions: Nb16 10 mg/kg intraperitoneal, SZU-101 3 mg/kg peritumoral; day 15

Molecule	Tumor inhibitory rate [%]
COCCOc1nc(N)c2nc(O)n(Cc3ccc(CNC(=O)CCC(=O)O)cc3)c2n1 [SZU-101]	49

same assay, conditions: individual mice, day 15; Nb16 10 mg/kg intraperitoneal, SZU-101 3 mg/kg peritumoral

Molecule	Endpoint tumor Weight
COCCOc1nc(N)c2nc(O)n(Cc3ccc(CNC(=O)CCC(=O)O)cc3)c2n1 [SZU-101]	0.298 g and 0.560 g and 0.330 g and 0.278 g and 0.354 g and 0.516 g and 0.286 g and 0.328 g and 0.426 g

— patent US20240189443A1, “PD-L1 AND TLR7 DOUBLE-TARGETING NANOBODY COUPLING DRUG AND USE THEREOF IN ANTI-TUMOR” (SHANGHAI INSTITUTE OF MATERIA MEDICA, CHINESE ACADEMY OF …, priority 2021, published 2024)
